Legend:
[1] = biological target: CD3 (CD3/TCR complex) on CD4+ and CD8+ T cells of patients (human) (UniProt P07766); experiment: flow cytometry of CD4+ T cells, free CD3 sites by biotinylated TRX4; Example 3 Cohort 2, second 0.5 mg dose
[2] = biological target: CD3 (CD3/TCR complex) on CD4+ and CD8+ T cells of patients (human) (UniProt P07766); experiment: flow cytometry of CD4+ T cells, anti-human IgG; Example 4 Cohort C, end of 0.2 mg infusion
[3] = biological target: CD3 (CD3/TCR complex) on CD4+ and CD8+ T cells of patients (human) (UniProt P07766); experiment: flow cytometry of CD4+ T cells, anti-human IgG; Example 4 Cohort C, end of 1.0 mg infusion
[4] = biological target: CD3 (CD3/TCR complex) on CD4+ and CD8+ T cells of patients (human) (UniProt P07766); experiment: flow cytometry of CD4+ T cells, free CD3 sites by biotinylated TRX4; Example 3 Cohort 2, first 0.5 mg dose
[5] = biological target: CD3 (CD3/TCR complex) on CD4+ and CD8+ T cells of patients (human) (UniProt P07766); experiment: flow cytometry of CD4+ T cells, anti-human IgG; Example 4 Cohort C, end of 0.1 mg infusion
[6] = biological target: CD3 (CD3/TCR complex) on CD4+ and CD8+ T cells of patients (human) (UniProt P07766); experiment: flow cytometry of CD4+ T cells, free CD3 sites by biotinylated TRX4; Example 4 Cohort B, 0.2 mg
[7] = biological target: CD3 (CD3/TCR complex) on CD4+ and CD8+ T cells of patients (human) (UniProt P07766); experiment: flow cytometry of CD4+ T cells, free CD3 sites by biotinylated TRX4; Example 3 Cohort 2, 2 hours after end of infusion
[8] = biological target: CD3 (CD3/TCR complex) on CD4+ and CD8+ T cells of patients (human) (UniProt P07766); experiment: flow cytometry, free sites by biotinylated TRX4; Example 4, 4-dose cohorts, 24 hours after infusion
[9] = biological target: CD3 (CD3/TCR complex) on CD4+ and CD8+ T cells of patients (human) (UniProt P07766); experiment: flow cytometry of CD4+ T cells, free CD3 sites by biotinylated TRX4; Example 3 Cohort 3, 0.1 mg
[10] = biological target: CD3 (CD3/TCR complex) on CD4+ and CD8+ T cells of patients (human) (UniProt P07766); experiment: flow cytometry of CD4+ T cells, anti-human IgG; Example 4 Cohort A*, end of 0.25 mg infusion
[11] = biological target: CD3 (CD3/TCR complex) on CD4+ and CD8+ T cells of patients (human) (UniProt P07766); experiment: flow cytometry of CD4+ T cells, free CD3 sites by biotinylated TRX4; Example 4 Cohort C, 0.2 mg
[12] = biological target: CD3 (CD3/TCR complex) on CD4+ and CD8+ T cells of patients (human) (UniProt P07766); experiment: flow cytometry of patients' CD4+ T cells, anti-human IgG; Example 3 Cohort 1 (0.1 mg x3), end of second infusion
[13] = biological target: CD3 (CD3/TCR complex) on CD4+ and CD8+ T cells of patients (human) (UniProt P07766); experiment: flow cytometry of CD4+ T cells, anti-human IgG; Example 4 Cohort B, end of 0.75 mg infusion
[14] = biological target: CD3 (CD3/TCR complex) on CD4+ and CD8+ T cells of patients (human) (UniProt P07766); experiment: flow cytometry of CD4+ T cells, free CD3 sites by biotinylated TRX4; Example 3 Cohort 3, 0.5 mg, end of infusion
[15] = biological target: CD3 (CD3/TCR complex) on CD4+ and CD8+ T cells of patients (human) (UniProt P07766); experiment: flow cytometry of CD4+ T cells, anti-human IgG; Example 4 Cohort B, 2 hours after 0.75 mg infusion
[16] = biological target: CD3 (CD3/TCR complex) on CD4+ and CD8+ T cells of patients (human) (UniProt P07766); experiment: flow cytometry of CD4+ T cells, anti-human IgG; Example 4 Cohort A, end of 0.2 mg infusion
[17] = biological target: CD3 (CD3/TCR complex) on CD4+ and CD8+ T cells of patients (human) (UniProt P07766); experiment: flow cytometry of CD4+ T cells, free CD3 sites by biotinylated TRX4; Example 3 Cohort 3, 0.3 mg
[18] = biological target: CD3 (CD3/TCR complex) on CD4+ and CD8+ T cells of patients (human) (UniProt P07766); experiment: flow cytometry of CD4+ T cells, free CD3 sites by biotinylated TRX4; Example 4 Cohort A*, 0.15 mg
[19] = biological target: CD3 (CD3/TCR complex) on CD4+ and CD8+ T cells of patients (human) (UniProt P07766); experiment: flow cytometry of CD4+ T cells, anti-human IgG; Example 3 Cohort 2 (0.5 mg x3), 2 hours after end of dosing
[20] = biological target: CD3 (CD3/TCR complex) on CD4+ and CD8+ T cells of patients (human) (UniProt P07766); experiment: flow cytometry of CD4+ T cells, anti-human IgG; Example 4 Cohort A, end of 0.3 mg infusion
[21] = biological target: CD3 (CD3/TCR complex) on CD4+ and CD8+ T cells of patients (human) (UniProt P07766); experiment: flow cytometry of CD4+ T cells, anti-human IgG; Example 3 Cohort 2 (0.5 mg x3), end of infusion
[22] = biological target: CD3 (CD3/TCR complex) on CD4+ and CD8+ T cells of patients (human) (UniProt P07766); experiment: flow cytometry of CD4+ T cells, free CD3 sites by biotinylated TRX4; Example 4 Cohort B, 0.75 mg
[23] = biological target: CD3 (CD3/TCR complex) on CD4+ and CD8+ T cells of patients (human) (UniProt P07766); experiment: flow cytometry of CD4+ T cells, free CD3 sites by biotinylated TRX4; Example 4 Cohort B, 0.3 mg
[24] = biological target: CD3 (CD3/TCR complex) on CD4+ and CD8+ T cells of patients (human) (UniProt P07766); experiment: flow cytometry of CD4+ T cells, free CD3 sites by biotinylated TRX4; Example 4 Cohort C, 1.0 mg
[25] = biological target: CD3 (CD3/TCR complex) on CD4+ and CD8+ T cells of patients (human) (UniProt P07766); experiment: flow cytometry of CD4+ T cells, anti-human IgG; Example 4 Cohort A, end of 0.5 mg infusion

UniProt P07766, sequence (P07766 23-207, chain 1 of 3): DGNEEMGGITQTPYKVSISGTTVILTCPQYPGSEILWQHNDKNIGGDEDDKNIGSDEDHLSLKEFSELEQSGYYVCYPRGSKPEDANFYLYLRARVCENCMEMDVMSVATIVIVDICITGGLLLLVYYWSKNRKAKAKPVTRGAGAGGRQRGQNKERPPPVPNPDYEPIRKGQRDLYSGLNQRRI
UniProt P07766, sequence (chain, as listed by the source, chain 2 of 3): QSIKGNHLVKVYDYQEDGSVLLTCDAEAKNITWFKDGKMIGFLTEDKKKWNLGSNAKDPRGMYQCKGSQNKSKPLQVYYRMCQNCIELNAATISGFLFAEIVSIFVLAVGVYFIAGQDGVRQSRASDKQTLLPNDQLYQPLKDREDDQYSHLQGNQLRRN
UniProt P07766, sequence (chain, as listed by the source, chain 3 of 3): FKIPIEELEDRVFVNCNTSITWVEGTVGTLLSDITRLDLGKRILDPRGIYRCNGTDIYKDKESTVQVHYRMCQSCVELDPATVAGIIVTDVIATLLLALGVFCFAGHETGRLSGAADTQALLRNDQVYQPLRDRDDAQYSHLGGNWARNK

- percent saturation of CD3 [1]: 80%
- cell-bound TRX4 (MESF of anti-human IgG) [2]: 1.2e+06 MESF units
- cell-bound TRX4 (MESF of anti-human IgG) [3]: 750000 MESF units
- percent saturation of CD3 [4]: 90%
- cell-bound TRX4 (MESF of anti-human IgG) [5]: 800000 MESF units
- percent saturation of CD3 [6]: 60%
- percent saturation of CD3 [7]: 55%
- percent saturation of CD3 [8]: 40%
- percent saturation of CD3 [9]: 45%
- cell-bound TRX4 (MESF of anti-human IgG) [10]: 80000 MESF units
- percent saturation of CD3 [11]: 95%
- cell-bound TRX4 (MESF of anti-human IgG) [12]: 300000 MESF units
- cell-bound TRX4 (MESF of anti-human IgG) [13]: 480000 MESF units
- percent saturation of CD3 [14]: 90%
- cell-bound TRX4 (MESF of anti-human IgG) [15]: 550000 MESF units
- cell-bound TRX4 (MESF of anti-human IgG) [16]: 375000 MESF units
- percent saturation of CD3 [17]: 70%
- percent saturation of CD3 [18]: 80%
- cell-bound TRX4 (MESF of anti-human IgG) [19]: 400000 MESF units
- cell-bound TRX4 (MESF of anti-human IgG) [20]: 600000 MESF units
- cell-bound TRX4 (MESF of anti-human IgG) [21]: 600000 MESF units
- percent saturation of CD3 [22]: 95%
- percent saturation of CD3 [23]: 80%
- percent saturation of CD3 [24]: 97%
- cell-bound TRX4 (MESF of anti-human IgG) [25]: 450000 MESF units
Substance: TRX4 antibody
